The text below walks through data of patent US20230348605A1.

The labels stand for the following.
B1: NJT4 (VHH)
VHH: QVQLVESGGGLVQPGGSLRLSCAASGFTFSSYTMRWYRQAPGKERELVAFIGVAGGSTKYADSVKGRFTISRDNTKNTVYLQMNTLKPEDTAVYYCYAPLTPYWGQGTQVTVSS
modifications: labelled with Texas Red via sortase-mediated tagging in the ex vivo imaging assay
B2: NJT6 (VHH)
VHH: QVQLVETGGDLVQPGGSLRLSCAASGLTLDYYAIGWVRQAPGKEREGVSCITPQDGNTYYDDSVMGRFTILRDNAKNMVYLQMNNLKPEDTAVYFCAAAGALTLDPSEYEYWGQGTQVTVSS
modifications: labelled with Texas Red or 64Cu via sortase-mediated tagging in the imaging assays
B3: NJT3 (VHH)
VHH: QVQLVETGGGLAQAGGSLRLSCAASGRTLSGYAMGWFRQAPGKEREFVAAISWSGRNTYYDYTVQGRFTISKDNAKNTVNLQMNSLKPEDTAVYYCAVSRSLDEFGDGYEMDYWGDGTQVTVSS
modifications: labelled with Texas Red via sortase-mediated tagging in the ex vivo imaging assay

This experiment addresses purified human TNC protein (human) (UniProt P24821). The experiment is described as follows: BLI. A general note: In BLI a coated tip is dipped into the sample, and binding shifts an interference pattern.
In the case of B1, the Kd (usually the free concentration of one partner at which half of the binding sites on the other are occupied at equilibrium, for simple one-to-one binding) is below 1 pM.

On to B2, for which the Kd was below 1 pM.

In turn, B3 showed a dissociation constant Kd below 1 pM.
